Measured values as given in the supplement of paper PMC9233669.
This sample holds only a part of the variants without activity.

Tests used:
biotinyl-Phe-oxazolone = test: self-aminoacylation, catalytic enhancement (BFO) (fold over background); higher = more active; k-Seq, kA / k0A0; sequences stand for … in GGGAAUGGAUCCACAUCUACGAAUUC…UUCACUGCAGACUUGACGAAGCUG
Procedure, shortened: (§1)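 Mutagenized RNA pools with a 21-nt variable region (0.43 μM) reacted with each biotinyl-aminoacyl-oxazolone at 2–1250 μM. Reactions ran in 50 μL HEPES/NaCl/KCl/MgCl2/CaCl2 buffer with 5% acetonitrile, pH 6.9–7.0, for 90 minutes at room temperature. Streptavidin-captured RNA was quantified by triplicate qPCR and Illumina sequencing, and per-sequence fraction reacted was fit to a pseudo-first-order model with 1000 bootstraps. Catalytic enhancement is median kA divided by the uncatalyzed rate, the low-activity peak of a bimodal Gaussian fit.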

biotinyl-Ile-oxazolone = test: self-aminoacylation, catalytic enhancement (BIO) (fold over background); higher = more active; k-Seq, kA / k0A0; sequences stand for … in GGGAAUGGAUCCACAUCUACGAAUUC…UUCACUGCAGACUUGACGAAGCUG
Procedure, shortened: as §1

biotinyl-Met-oxazolone = test: self-aminoacylation, catalytic enhancement (BMO) (fold over background); higher = more active; k-Seq, kA / k0A0; sequences stand for … in GGGAAUGGAUCCACAUCUACGAAUUC…UUCACUGCAGACUUGACGAAGCUG
Procedure, shortened: as §1

biotinyl-Val-oxazolone = test: self-aminoacylation, catalytic enhancement (BVO) (fold over background); higher = more active; k-Seq, kA / k0A0; sequences stand for … in GGGAAUGGAUCCACAUCUACGAAUUC…UUCACUGCAGACUUGACGAAGCUG
Procedure, shortened: as §1

biotinyl-Leu-oxazolone = test: self-aminoacylation, catalytic enhancement (BLO) (fold over background); higher = more active; k-Seq, kA / k0A0; sequences stand for … in GGGAAUGGAUCCACAUCUACGAAUUC…UUCACUGCAGACUUGACGAAGCUG
Procedure, shortened: as §1

biotinyl-Trp-oxazolone = test: self-aminoacylation, catalytic enhancement (BWO) (fold over background); higher = more active; k-Seq, kA / k0A0; sequences stand for … in GGGAAUGGAUCCACAUCUACGAAUUC…UUCACUGCAGACUUGACGAAGCUG
Procedure, shortened: as §1

Sequence | self-aminoacylation (biotinyl-Phe-oxazolone) | self-aminoacylation (biotinyl-Ile-oxazolone) | self-aminoacylation (biotinyl-Met-oxazolone) | self-aminoacylation (biotinyl-Val-oxazolone) | self-aminoacylation (biotinyl-Leu-oxazolone) | self-aminoacylation (biotinyl-Trp-oxazolone)
CCACACGUCAAGCAAUAGGUC [Fam1B.1 aminoacylation ribozyme variant] | 1.1 | 0.655 | 0.765 | 0.831 | 0.652 | 0.587
CCACACGUCAAGCCAUCGGUC [Fam1B.1 aminoacylation ribozyme variant] | 1.11 | 1.34 | 1.58 | 2.45 | 1.48 | 1.21
CCACACGUCAUGCAAUCGGUC [Fam1B.1 aminoacylation ribozyme variant] | 0.974 | 1.18 | 1.26 | 1.34 | 0.972 | 1.61
CCACACGUCGAGCAAUCGGUC [Fam1B.1 aminoacylation ribozyme variant] | 0.83 | 1.17 | 0.959 | 2.02 | 1.41 | 1.22
CCACACGUGAAGCAAUCGGUC [Fam1B.1 aminoacylation ribozyme variant] | 0.826 | 0.9 | 1.32 | 1.2 | 0.721 | 1.39
CCACACUACAAACAAUCGGUC [Fam1B.1 aminoacylation ribozyme variant] | 1.41 | 0.904 | 0.642 | 0.883 | 0.652 | 0.993
CCACACUACAAGCAAUCGUUC [Fam1B.1 aminoacylation ribozyme variant] | 0.644 | 0.643 | 0.548 | 0.679 | 0.54 | 0.468
CCACACUAUAAGCAAUCGGUC [Fam1B.1 aminoacylation ribozyme variant] | 0.92 | 0.789 | 0.567 | 0.793 | 0.59 | 0.386
CCACACUCCAAACAAUCGGUC [Fam1B.1 aminoacylation ribozyme variant] | 10.9 | 0.982 | 0.917 | 1.31 | 1.09 | 6.11
CCACACUCCAAGAAAUCGGUC [Fam1B.1 aminoacylation ribozyme variant] | 0.991 | 1.31 | 0.768 | 0.973 | 0.848 | 1
CCACACUCCAAGCAAACGGUC [Fam1B.1 aminoacylation ribozyme variant] | 1.06 | 0.95 | 0.934 | 0.773 | 0.861 | 1.21
CCACACUCCAAGCAAUAGGUC [Fam1B.1 aminoacylation ribozyme variant] | 1.06 | 0.741 | 0.686 | 0.845 | 0.569 | 0.637
CCACACUCCAAGCAAUCGGCC [Fam1B.1 aminoacylation ribozyme variant] | 2.68 | 1.63 | 1.36 | 2.36 | 1.28 | 2.59
CCACACUCCAAGCAGUCGGUC [Fam1B.1 aminoacylation ribozyme variant] | 0.733 | 1.32 | 1.04 | 1.49 | 1.11 | 1.04
CCACACUCCAAGUAAUCGGUC [Fam1B.1 aminoacylation ribozyme variant] | 1.97 | 1.01 | 0.951 | 0.95 | 0.919 | 1.29
CCACACUCCUAGCAAUCGGUC [Fam1B.1 aminoacylation ribozyme variant] | 0.91 | 0.943 | 0.631 | 1.04 | 0.746 | 0.519
CCACACUGCAAGCAAUCGAUC [Fam1B.1 aminoacylation ribozyme variant] | 1.39 | 0.9 | 0.56 | 1.07 | 0.739 | 0.727
CCACACUGCAAGCAAUCGGUU [Fam1B.1 aminoacylation ribozyme variant] | 5.76 | 1.77 | 2.17 | 1.73 | 1.63 | 1.76
CCACACUGCAAGCACUCGGUC [Fam1B.1 aminoacylation ribozyme variant] | 2.57 | 1.63 | 1.54 | 1.66 | 1.39 | 1.47
CCACACUGCAAGCGAUCGGUC [Fam1B.1 aminoacylation ribozyme variant] | 1.13 | 1.27 | 1.19 | 1.57 | 1.15 | 1.43
CCACACUUAAACCAAUCGGUC [Fam1B.1 aminoacylation ribozyme variant] | 1.19 | 0.938 | 0.615 | 0.756 | 0.572 | 0.722
CCACACUUAAAGCAACCGGUC [Fam1B.1 aminoacylation ribozyme variant] | 0.756 | 1.08 | 1.2 | 1.16 | 0.876 | 0.943
CCACACUUAAAGCAAUCGGUG [Fam1B.1 aminoacylation ribozyme variant] | 26 | 2.75 | 3.87 | 2.42 | 4.31 | 4.42
CCACACUUAAAGCACUCGGUC [Fam1B.1 aminoacylation ribozyme variant] | 0.788 | 1.16 | 0.856 | 1.11 | 0.924 | 0.732
CCACACUUAAAGGAAUCGGUC [Fam1B.1 aminoacylation ribozyme variant] | 0.88 | 1.12 | 0.953 | 1.01 | 0.906 | 0.763
CCACACUUCAAACAAUCAGUC [Fam1B.1 aminoacylation ribozyme variant] | 42.2 | 0.947 | 0.771 | 1.06 | 1.16 | 12.4

Sequence | self-aminoacylation (biotinyl-Phe-oxazolone) | self-aminoacylation (biotinyl-Ile-oxazolone) | self-aminoacylation (biotinyl-Met-oxazolone) | self-aminoacylation (biotinyl-Val-oxazolone) | self-aminoacylation (biotinyl-Leu-oxazolone) | self-aminoacylation (biotinyl-Trp-oxazolone)
CCACACUUCAAACAAUCCGUC [Fam1B.1 aminoacylation ribozyme variant] | 1.35 | 0.83 | 0.559 | 0.993 | 0.682 | 1.2
CCACACUUCAAACAAUCGUUC [Fam1B.1 aminoacylation ribozyme variant] | 1.55 | 0.759 | 0.697 | 0.822 | 0.623 | 0.778
CCACACUUCAAAGAAUCGGUC [Fam1B.1 aminoacylation ribozyme variant] | 12.1 | 0.988 | 0.888 | 0.955 | 1.17 | 9.57
CCACACUUCAACCAAGCGGUC [Fam1B.1 aminoacylation ribozyme variant] | 0.838 | 0.95 | 0.914 | 1.08 | 0.761 | 0.613
CCACACUUCAACCAAUCGGCC [Fam1B.1 aminoacylation ribozyme variant] | 4.99 | 2.12 | 1.55 | 2 | 1.72 | 5.45
CCACACUUCAACCAAUCGUUC [Fam1B.1 aminoacylation ribozyme variant] | 1.28 | 0.674 | 0.634 | 0.636 | 0.562 | 0.778
CCACACUUCAACCUAUCGGUC [Fam1B.1 aminoacylation ribozyme variant] | 1.18 | 1.02 | 0.87 | 1.34 | 0.995 | 0.993
CCACACUUCAAGAAACCGGUC [Fam1B.1 aminoacylation ribozyme variant] | 0.875 | 0.998 | 0.798 | 0.824 | 1.17 | 0.931
CCACACUUCAAGAAAGCGGUC [Fam1B.1 aminoacylation ribozyme variant] | 0.498 | 0.839 | 0.66 | 0.716 | 0.784 | 0.407
CCACACUUCAAGAAAUCGGGC [Fam1B.1 aminoacylation ribozyme variant] | 1.14 | 2.14 | 1.82 | 1.69 | 1.64 | 2.16
CCACACUUCAAGCAAACGGUC [Fam1B.1 aminoacylation ribozyme variant] | 1.02 | 0.624 | 0.511 | 0.755 | 0.535 | 0.599
CCACACUUCAAGCAAACUGUC [Fam1B.1 aminoacylation ribozyme variant] | 0.713 | 0.424 | 0.371 | 0.504 | 0.44 | 0.5
CCACACUUCAAGCAAGCAGUC [Fam1B.1 aminoacylation ribozyme variant] | 0.916 | 0.721 | 0.645 | 0.857 | 0.861 | 0.475
CCACACUUCAAGCAAGCGGUA [Fam1B.1 aminoacylation ribozyme variant] | 0.741 | 1.39 | 1.02 | 1.2 | 1.13 | 0.921
CCACACUUCAAGCAAGCGUUC [Fam1B.1 aminoacylation ribozyme variant] | 0.905 | 0.689 | 0.454 | 0.728 | 0.516 | 0.492
CCACACUUCAAGCAAUAGGAC [Fam1B.1 aminoacylation ribozyme variant] | 0.856 | 0.621 | 0.456 | 0.537 | 0.479 | 0.626
CCACACUUCAAGCAAUAGGUG [Fam1B.1 aminoacylation ribozyme variant] | 4.08 | 1.85 | 2.17 | 1.65 | 2.81 | 2.55
CCACACUUCAAGCAAUCCAUC [Fam1B.1 aminoacylation ribozyme variant] | 0.752 | 0.553 | 0.433 | 0.774 | 0.446 | 0.529
CCACACUUCAAGCAAUCCGCC [Fam1B.1 aminoacylation ribozyme variant] | 0.939 | 0.873 | 1.16 | 1.64 | 1.02 | 0.899
CCACACUUCAAGCAAUCGCCC [Fam1B.1 aminoacylation ribozyme variant] | 0.498 | 0.996 | 1.33 | 2.32 | 2 | 1.58
CCACACUUCAAGCAAUCGGAA [Fam1B.1 aminoacylation ribozyme variant] | 1.81 | 1.45 | 1.42 | 1.51 | 2.04 | 1.18
CCACACUUCAAGCAAUCGGUC [Fam1B.1 aminoacylation ribozyme variant] | 59.3 | 1.01 | 0.964 | 1.25 | 1.44 | 23.9
CCACACUUCAAGCAAUCGGUU [Fam1B.1 aminoacylation ribozyme variant] | 9.59 | 1.35 | 1.36 | 1.59 | 1.38 | 7.61
CCACACUUCAAGCAAUCGUCC [Fam1B.1 aminoacylation ribozyme variant] | 1.57 | 0.54 | 0.412 | 0.652 | 0.518 | 1.06
CCACACUUCAAGCAAUCUGAC [Fam1B.1 aminoacylation ribozyme variant] | 0.63 | 0.493 | 0.41 | 0.549 | 0.325 | 0.429
